Mean (Aβ spots per neuron), Isotype Control 1:50 (Aβ spots per neuron) data for one substance are collected here from patent publication US20260226143A1.

This assay addresses soluble Aβ oligomers (human). Kind of assay: cell-based or functional assay.

With human IgG isotype control antibody, the Mean (Aβ spots per neuron), Isotype Control 1:50 (Aβ spots per neuron) is 58.7.
